How the values were obtained:
MDA-MB-231 cells = assay: Cell viability under etoposide, Cell Titer Glo; format: cell-based, human
Experimental: Cells were seeded into 96-well dishes at a density of 1×10^4 cell per well in complete medium with varying doses of cmvIL-10, and then cell viability measured at the indicated time points using the Cell Titer Glo Assay kit according to manufacturer's instructions (Promega). DNA synthesis was measured in cells prepared in the same way using the BrdU Cell Proliferation ELISA Kit (Roche, Basel, Switzerland). For experiments using inhibitors, cells were cultivated in 96-well dishes as above with a final concentration of 10 μM inhibitor and BrdU incorporation evaluated after 72 hrs. For cell counts, cells were seeded into 6-well plates at a density of 2×10^5 cells per well, harvested via trypsinization, and counted using a hemacytometer at the indicated time points. The TACS Annexin V-FITC Detection Kit (Trevigen, Gaithersburg, Md.) was used to stain cells harvested from 70% confluent T75 flasks that had been treated with 100 μM etoposide for 48 hrs in the presence or absence of 100 ng/ml cmvIL-10. Cells were then analyzed via flow cytometry to detect fluorescence. For viability assays, Cell Titer Glo reagent was utilized to quantify cells that had been seeded into 96-well dishes at a density of 1×10^4 cell per well in complete medium with varying doses of etoposide in the presence or absence of 100 ng/ml cmvIL-10 as indicated

MMP-3 = MMP-3 ELISA on cell lysates; format: cell-based, human; conditions: 10 ng/ml, 48 hours
Experimental: DuoSet ELISA kits (R&D Systems) were used to quantify uPAR, PAI-1, and MMP-3. For uPAR and PAI-1 measurement, MDA cells were seeded in triplicate in 96-well plate at 5.0×10^4 cell/mL density with complete L-15 media and treated with 10 ng/mL of either cmvIL-10 or hIL-10 for the indicated times and supernatants were collected daily. The ELISA was carried out on supernatants according to manufacturer's instructions using and following the addition of substrate and stop solution, absorbance of the plate was measured at 450 nm using a Dynex Opsys MR microplate reader. Sample concentrations were interpolated from a standard curve using linear regression analysis. For cell-associated MMP-3, MDA cells were seeded in 96-well plates and treated with cmvIL-10 as above. Cells were treated with cell lysis buffer (150 mM NaCl, 20 mM HEPES, 0.5% Triton-X-100, 1.0 mM NaOV4, 1.0 mM EDTA, 0.1% NaN3) supplemented with 1× protease inhibitors (Calbiochem, EMD Chemicals, San Diego Calif.) and were collected daily for the indicated time points. The lysates were evaluated for MMP-3 according to the manufacturer's instructions (R&D Systems).

B1: cmvIL-10 (protein)
chain: ATTTTIKNTKPQCRPEDYATRLQDLRVTFHRVKPTLQREDDYSVWLDGTVVKGCWGCSVMDWLLRRYLEIVFPAGDHVYPGLKTELHSMRSTLESIYKDMRQCPLLGCGDKSVISRLSQEAERKSDNGTRKGLSELDTLFSRLEEYLHSRK
cell viability over time (MDA-MB-231 cells; 10 μM etoposide, 100 ng/ml cmvIL-10): able to overcome etoposide-induced effects over time and proliferate robustly
overall cell viability (MDA-MB-231 cells; varying doses of etoposide, 100 ng/ml cmvIL-10, 48 hours): increased overall cell viability
cell-associated MMP-3 (cell lysates) (MMP-3): increased significantly
